Source: the supplement of paper PMC12764529
± gives the half width of the 95% confidence interval.

Columns and labels:
[1] = folding stability dG unfold from trypsin proteolysis; higher = more stable
How it was run: (§1)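 Digests were run with trypsin and chymotrypsin at 11 concentrations in threefold dilutions, plus a no-protease condition, on designed mini-proteins in a PA-tagged cDNA display construct. The mini-proteins were under 80 residues, had no cysteine, and were kept only when AlphaFold2 dimer inter-PAE was above 15. After sequencing, Bayesian fitting of the counts gave K50, from which unfolding free energy was derived against a sequence-predicted unfolded-state K50 and a shared folded-state K50, per protease or combined.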

[2] = folding stability dG unfold from chymotrypsin proteolysis; higher = more stable
How it was run: as §1

[3] = folding stability dG unfold (combined trypsin and chymotrypsin); higher = more stable
How it was run: as §1

Sequence | folding stability dG unfold [1] [kcal/mol] | folding stability dG unfold [2] [kcal/mol] | folding stability dG unfold [3] [kcal/mol]
SAGGSAGGSDFPVKILEVEFHPNGSITIVIQAPDGWYIKATFHVPPNGNVKMSIELIPDPDAISAGGSAGGS [r20_23_TrROS] | 3.36 ± 0.17 | 4 ± 0.15 | 3.85 ± 0.19
SAGGSAFKLTFKNMKIESKMPNPDGQKMIRIEWPDGLSIMIHPPNAIWIMPKDDPEMPPGDMVPIDSAGGSA [r15_692_TrROS] | 0.695 ± 0.25 | 0.782 ± 0.28 | 0.953 ± 0.28
SAGGSAGGPLVVILPDPETGLFHVRVRYPDGTVESLGPFPSLEEALEALPSEGLGRVEVRPYLKSAGGSAGG [r6_307_TrMRF] | 1.05 ± 0.014 | 1.44 ± 0.038 | 1.28 ± 0.049
SAGGSAGGSDPTPVVVEFPFSSEEEAEKKAKEAAEKLKAEGVDIKEVKIEYDPEKGTVTLTLGSAGGSAGGS [r20_155_JUSTAS] | 1.36 ± 0.043 | 1.07 ± 0.062 | 1.21 ± 0.11
SAGGSAGGSAGGASLKVVEREVEYYDPETGETVRVKALVTVDPNSDKEILDPEEKEKLLSSAGGSAGGSAGG [r7_557_JUSTAS] | 1.02 ± 0.034 | 0.795 ± 0.016 | 0.907 ± 0.087
SPGVTVEISTSTLPNGTRVTTLTTTTFDPQTGTTSTTTTVTVSPAPSSASPLRRELVTRPDGTLVPAALLSA [r9_898_JUSTAS] | -0.234 ± 0.13 | 0.235 ± 0.16 | 0.168 ± 0.076
SAGGKPAKPTRLDFPDDDVKTVPANTKIILTRPDGSKLVIELPEEEFTAKPDEWVFETPTSKITFPIASAGG [r13_643_TrMRF] | 0.767 ± 0.092 | 0.657 ± 0.15 | 0.725 ± 0.21
SAGGSAGGSAGSPIDTLVEEKTFTLPNGEKVIEATLKRPPGEPVHVVTIETKDSVIVELESAGGSAGGSAGG [r17_316_JUSTAS] | 0.513 ± 0.019 | 0.304 ± 0.086 | 0.462 ± 0.049
SAGGSAGMPDPPLEGLKEALREALAANPGEEVTLTVPRADGRTLTVRGTKDGGIEITLPDGTRIALSAGGSA [r15_73_JUSTAS] | 1.58 ± 0.036 | 1.52 ± 0.087 | 1.58 ± 0.072
SAGGSAGGSAGGPPVTLLVVVRNEDGSLYLVRVEFDLETNEVKVEVFTLDDLKNLPEELSAGGSAGGSAGGS [r10_1077_TrROS_Hall] | 2.14 ± 0.14 | 3.66 ± 0.075 | 3.26 ± 0.25
SAGGMTIITTTFTLKLPSNGKVVTVTKTYNLSPEEGKKEAEKIAKEIAEELKEPTEILEIKITYYPESAGGS [r16_140_JUSTAS] | 1.26 ± 0.092 | 2 ± 0.085 | 1.7 ± 0.27
SASPDAPVEVVVSLRELRERIEAEHPGRPVTPEDVAALAREELEAAGRPLEDLRVEAVDEATGTVRLVASAG [r14_303_JUSTAS] | -0.251 ± 0.054 | 1.29 ± 0.019 | 0.907 ± 0.035
SAGGEVKVEIKYDKKKNKIEIKVIVRDKETGEWKELSAEEIAKLLKKKLKLPNVKEIKVEVYEPGEKPSAGG [r13_327_TrROS_Hall] | 1.31 ± 0.11 | 1.98 ± 0.12 | 1.97 ± 0.18
SAGKRMPVEEIANELAKEFPPGQTREVPIRNEDGGEWITLTVYHPNGKPVWKITIRPDGEIEVEWVPLSAGG [r19_0_TrROS] | 0.889 ± 0.042 | 2.31 ± 0.024 | 1.94 ± 0.088
SAGGSAPMFEIWFRDPEAIEKLLEESGFPVSIERFPNDPNWVKITIFMKGPMEEAQDKLREALGLESAGGSA [r15_118_TrROS] | 2.29 ± 0.04 | 2.95 ± 0.014 | 2.74 ± 0.036
SAGGSAGGSASSIVLTKTPGSYVLTEVELSSSTYPPSPPDYGSVVTVTPLEVVEREPGVPLPSAGGSAGGSA [r18_255_JUSTAS] | 0.0789 ± 0.12 | 0.263 ± 0.19 | 0.176 ± 0.18
SAGGSGMMLEEGVGVDPTTGELHRFTYLREPERPPVEVTVTTTTVVYTTPDGTTVTVTTTTTLEGGSAGGSA [r2_326_JUSTAS] | 0.671 ± 0.047 | 0.786 ± 0.27 | 0.789 ± 0.13
SAGGGSSSSSLTFTYDPATGKVLGSESFTIPSPSGEPRTNVLTLVEKNPSGTLKTTVLTRPVPPTLSSAGGS [r16_595_JUSTAS] | 1.55 ± 0.1 | 2.62 ± 0.096 | 2.66 ± 0.35
SVVLDVPYENRPDLLATIRALVAEKAPPVVVFVEAPEAERARLRRELEALGFTVEPTPVPNRYRITFRPASA [r9_600_TrMRF] | 3.15 ± 0.085 | 3.07 ± 0.058 | 3.15 ± 0.067
SAGGSLVEKVKAIFAEKGIPVNPITTTPTSFTAKTPTGPFTVELPGNSTVTVSPDGTATVTVPPGLSSAGGS [r8_297_JUSTAS] | 1.41 ± 0.16 | 2.2 ± 0.066 | 1.99 ± 0.21
KTITIIIPMTPEQIEELAKALAEKLGLSEEEVEVVKVEKIKNEDGELYVKITIKLKETGKEITIIVPLKDLS [r1_21_TrROS_Hall] | 1.76 ± 0.08 | 3.2 ± 0.12 | 2.8 ± 0.12

Sequence | folding stability dG unfold [1] [kcal/mol] | folding stability dG unfold [2] [kcal/mol] | folding stability dG unfold [3] [kcal/mol]
SAGGSAPPNWRRIEITFYIPPGQPTVSELADHIAKRIGFPVTGVEIDKVERNPDGAYEVKVSIIVPSAGGSA [r15_654_TrROS] | 2.69 ± 0.056 | 2.9 ± 0.054 | 2.75 ± 0.15
SAGGSAGGSAGGSMYIKIPGEPGDLREVVIEGKKVKVTPDANNPDKVTYTLPDGTKIALSAGGSAGGSAGGS [r4_488_JUSTAS] | 0.117 ± 0.064 | 0.957 ± 0.14 | 0.638 ± 0.073
SAGGSAGGSAGGPTLELEITLPDGFKLRVTFDPEKGLRVELVEPVPAPPPKVEYRSLEDLSAGGSAGGSAGG [r11_188_TrROS_Hall] | 0.552 ± 0.13 | 1.62 ± 0.11 | 1.37 ± 0.18
SAGGSAGGSAIMINIDLEYDPGDGTIELEYKISFMDPGGKPMGMITIRLEIRIPPPEPDPDDKSAGGSAGGS [r12_254_TrROS] | 3.08 ± 0.31 | 3.64 ± 0.39 | 3.37 ± 0.46
SAGGSAGGSALEIPFPIKDVKWERNPDGSRTRTFYLKNGWRASLIFNPKNGQMQIDIEPLDSAGGSAGGSAG [r3_438_TrROS] | 1.8 ± 0.073 | 1.57 ± 0.12 | 1.81 ± 0.17
SAGGGSMTPTTTTKTYNVPPELAQKILDGYPLGDKELAAALGLPPDVEVTLVSSDEDTLTVEITIPASAGGS [r16_679_JUSTAS] | 3.48 ± 0.14 | 4.05 ± 0.068 | 3.81 ± 0.075
SEVVDTFSPPVTGSGEPRDFEIRLIKDENGNPVSVTMFDPVTGVEYPPDVSLEDLGVPPPVVEAFEAARRSS [r1_354_JUSTAS] | -0.48 ± 0.08 | 0.0636 ± 0.062 | -0.0908 ± 0.069
SAGGSAGGSSPPVTVIPLKIPVDPDTTPEEIKEELAAKVPPNSSVKVDTKPGSGTVNVTVTISSAGGSAGGS [r12_12_JUSTAS] | 1.12 ± 0.061 | -0.14 ± 0.11 | 0.753 ± 0.14
SAGGKEKYKIKIYNKKTGKEYEFEIPLDEIVKYDKKNKKIYIKLKNGKKLEFKSLEDIVKIEIEKLPSAGGS [r8_111_TrROS_Hall] | 2.34 ± 0.088 | 3.48 ± 0.056 | 3.14 ± 0.14
SAGGSAGGKPKMTFPITDIYPPPGGGNVFIRIQSDDKPREFPFPNLENLEIEKDPEDGTVKIKWSAGGSAGG [r6_806_TrROS] | 0.129 ± 0.36 | 0.307 ± 0.39 | -0.0766 ± 0.31
SAGGSAGGSAGTVIRVRDKNGKIVEISLEEAAELLGIPPSELTLEDIVKAFAEKVDSIEILSSAGGSAGGSA [r18_403_TrMRF] | 3.6 ± 0.1 | 2.3 ± 0.038 | 2.91 ± 0.064
SAGKELTIEIVIERNGELITLTIKAKSEEELLEALKKLLEELGFEVEDIKIEKKDGEVIVTVTIRLPKKSAG [r5_946_TrROS_Hall] | 2.7 ± 0.13 | 3.83 ± 0.081 | 3.43 ± 0.15
SAGMKKVKIETTEFREFEGGEREIVMKVYKPDGSEVATVVLPFPPDLSEEEMRERAEAEAKKLAEELGLSAG [r5_697_JUSTAS] | 0.581 ± 0.094 | 0.579 ± 0.17 | 0.636 ± 0.21
SAGGSAGGSAGKLPPGAKVEEVFEVEIEVTYLNPDTGEEVEKEKITVRVVKVDGKLVIEFSAGGSAGGSAGG [r11_415_TrROS_Hall] | 1.39 ± 0.11 | 2.79 ± 0.31 | 2.04 ± 0.25
STIRITLPKEELSPELLEALAKAPGLSEEELRDRLTVEEVDGEVVITLSPEVLEELRKRNPELLEALEKASA [r9_160_TrROS_Hall] | 3.32 ± 0.093 | 1.91 ± 0.054 | 2.59 ± 0.11
SAGGSAGGSAGGKPKVIVIEGMSLEEIKALLAELPEDVTIVVRLPDGSTRTLTVRLPEPSAGGSAGGSAGGS [r10_514_TrROS_Hall] | 1.78 ± 0.077 | 1.13 ± 0.077 | 1.48 ± 0.095
SAGGMKVIEVEMTADEVKALVKELAEKDDLKIYIYVDGKKIELTVDEIKKIPPENQKVTIIIEKKKESAGGS [r16_628_TrROS_Hall] | 2.95 ± 0.22 | 3.11 ± 0.14 | 3.07 ± 0.28
SAGGYDFDPRGEFPFPNGVKVEVWEMTWPDGNPMTMIEIEATIPPPPKPPMSPEDAKENNKDMAKNNSAGGS [r16_8_TrROS] | -0.415 ± 0.12 | 0.403 ± 0.16 | 0.211 ± 0.21
SAGGSAMMTVTITIPKENLTKEEIKKALEEAGAKVVKVEEKDGKVTVTVEMTPEQVEKLKEALKKLSAGGSA [r15_161_TrROS_Hall] | 3.98 ± 0.46 | 3.53 ± 0.28 | 4.14 ± 0.45
SASSFPPGSTATLTVRVTDPAGTATTTLTIPLSVDPSTGKAVSLEEVYEILKELGVDPANVTITSLTVSSAG [r14_93_JUSTAS] | 3.07 ± 0.088 | 3.143 ± 0.024 | 3.07 ± 0.08
SAGGSAGGSAGGMPIPVTITVSDPATGTTKVVKTVLVTSPEKLEEVISKLPEGKKYTVVESAGGSAGGSAGG [r7_307_JUSTAS] | -0.415 ± 0.098 | -0.224 ± 0.22 | -0.393 ± 0.29
